Data published in the supplement of paper PMC10126150.
± gives the standard deviation of the averaged measurements.

Tested on: ATP
Test: switch fluorescence ratio, 500 uM ATP over buffer (Cy3 cluster intensity, sum of 5 cycles each) (fold (ratio)); higher = stronger signal-on switching upon ATP binding; sequences stand for … in TCGTCGGCAGCGTCAGATGTGTATAAGAGACAGTTTTTTTTTTTTTTTTTTTTTTTTT…TC
Conditions: aptamer strand: ATP DNA aptamer (quencher-CACCTGGGGGAGTATTGCGGAGGAAGG + anchor), 100 nM annealed; ATP concentration: 500 uM
Procedure, shortened: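 Clusters with intensities outside 100-1000 RFU were excluded. The remaining Cy3-labelled switching-strand clusters on a modified Illumina MiSeq flow-cell had been annealed to 100 nM quencher-labelled ATP aptamer and imaged in selection buffer, then after 15 min with 500 uM ATP at 22 °C, for five cycles separated by NaOH stripping and re-annealing. The fluorescence ratio, averaged per switch-domain sequence, is each cluster's summed target-cycle Cy3 intensity over its summed buffer-cycle Cy3 intensity.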
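Further: ATP exposure 15 min at 22 °C before imaging.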

Row | Sequence | switch fluorescence ratio
1 | GTAGGAACCT | 1.8 ± 0.12
2 | GTAGGGGATA | 1.02 ± 0.026
3 | GTAGGGGATC | 1.04 ± 0.058
4 | GTAGGTAACG | 0.9867 ± 0.0079
5 | GTAGGTATGG | 0.969 ± 0.015
6 | GTAGTAGCCA | 1.01 ± 0.033
7 | GTAGTAGGTG | 1 ± 0.033
8 | GTAGTATCAG | 1 ± 0.017
9 | GTAGTATTAT | 0.991 ± 0.035
10 | GTAGTATTTT | 0.994 ± 0.028
11 | GTAGTCATTT | 0.992 ± 0.022
12 | GTAGTCGGAT | 1.002 ± 0.0021
13 | GTAGTGGGGG | 0.975 ± 0.027
14 | GTAGTTGGAA | 0.9968 ± 0.0085
15 | GTAGTTGTGG | 1.01 ± 0.014
16 | GTATAAAAGT | 1.01 ± 0.03
17 | GTATAAGGGG | 0.977 ± 0.026
18 | GTATAAGTTT | 0.998 ± 0.017
19 | GTATAATTCA | 0.975 ± 0.028
20 | GTATGAAGTT | 0.982 ± 0.028
21 | GTATGCCGTC | 0.988 ± 0.076
22 | GTATGCCTTC | 1 ± 0.032
23 | GTATGTAGGG | 0.995 ± 0.015
24 | GTATGTAGTG | 0.966 ± 0.023
25 | GTATGTGTCG | 1.01 ± 0.017

Row | Sequence | switch fluorescence ratio
26 | GTATTAAACC | 1.06 ± 0.023
27 | GTATTACAGG | 1.04 ± 0.04
28 | GTATTAGAAG | 0.975 ± 0.047
29 | GTATTAGGAA | 0.985 ± 0.031
30 | GTATTAGGGT | 1 ± 0.041
31 | GTATTCGGTG | 0.982 ± 0.045
32 | GTATTGGTCG | 1.058 ± 0.0091
33 | GTATTTCTTA | 0.974 ± 0.0099
34 | GTATTTGGAG | 1.0226 ± 0.00041
35 | GTATTTGGGT | 0.986 ± 0.041
36 | GTATTTTAGG | 0.999 ± 0.053
37 | GTATTTTGCG | 1.12 ± 0.26
38 | GTATTTTGGC | 1.025 ± 0.0052
39 | GTCAACGCCG | 1.02 ± 0.018
40 | GTCAATTGGA | 0.992 ± 0.013
41 | GTCACACTT | 1.01 ± 0.0073
42 | GTCACCAACA | 1.27 ± 0.28
43 | GTCACGGGCG | 1.006 ± 0.0091
44 | GTCACTTATT | 1.036 ± 0.0058
45 | GTCAGAGCTA | 1.01 ± 0.025
46 | GTCAGGAGGG | 0.971 ± 0.026
47 | GTCAGGGGGA | 1.07 ± 0.14
48 | GTCAGTGTCG | 0.962 ± 0.021
49 | GTCATATGTC | 1.07 ± 0.051
50 | GTCATCATGG | 0.986 ± 0.044

Row | Sequence | switch fluorescence ratio
51 | GTCCACTGTT | 0.996 ± 0.024
52 | GTCCGAGAAT | 0.986 ± 0.064
53 | GTCCGGGGGC | 1.13 ± 0.04
54 | GTCCGGGTTT | 1.01 ± 0.036
55 | GTCCTTTTTT | 0.97 ± 0.039
56 | GTCGAATGGG | 1 ± 0.02
57 | GTCGATTTTT | 0.992 ± 0.044
58 | GTCGCAAGGG | 1.15 ± 0.021
59 | GTCGCAGGAG | 1.05 ± 0.011
60 | GTCGCATGAG | 1.03 ± 0.05
61 | GTCGGAGAGC | 1.04 ± 0.039
62 | GTCGGGAGGT | 0.989 ± 0.015
63 | GTCGGGAGTG | 0.986 ± 0.065
64 | GTCGGGGTAT | 0.991 ± 0.012
65 | GTCGGGGTCA | 0.99653 ± 0.0006
66 | GTCGGGTACA | 1.008 ± 0.0085
67 | GTCGGGTTTG | 0.991 ± 0.014
68 | GTCGGTGTTG | 0.98952 ± 0.00042
69 | GTCGTAAGAG | 0.98 ± 0.041
70 | GTCGTAGGAT | 0.9915 ± 0.0065
71 | GTCGTATGAG | 1.01 ± 0.028
72 | GTCGTCGGCG | 1.02 ± 0.025
73 | GTCGTCTTTT | 1.01 ± 0.012
74 | GTCGTGCCTG | 1.04 ± 0.15
75 | GTCGTGGCAA | 1.04 ± 0.022

Row | Sequence | switch fluorescence ratio
76 | GTCGTGTCTG | 1.004 ± 0.0065
77 | GTCGTGTGGT | 0.99 ± 0.045
78 | GTCTAACTGC | 0.962 ± 0.033
79 | GTCTAAGGGA | 0.968 ± 0.024
80 | GTCTATACAT | 0.973 ± 0.028
81 | GTCTATCTCT | 1.013 ± 0.0093
82 | GTCTCAGGTT | 1.04 ± 0.014
83 | GTCTCGGCAT | 1.2 ± 0.044
84 | GTCTGAGGTT | 0.963 ± 0.015
85 | GTCTGGGCTG | 0.986 ± 0.014
86 | GTCTTGGGTA | 0.963 ± 0.024
87 | GTGAAACGGT | 1.03 ± 0.043
88 | GTGAACATAT | 1.036 ± 0.0022
89 | GTGACAGAGG | 1.02 ± 0.0015
90 | GTGACTGTGT | 0.963 ± 0.014
91 | GTGAGATTGC | 0.95675 ± 0.0008
92 | GTGAGCCAGT | 1.01 ± 0.022
93 | GTGAGGAGTA | 1.001 ± 0.0093
94 | GTGAGGGGCG | 0.964 ± 0.035
95 | GTGAGGGTTT | 0.9758 ± 0.005
96 | GTGAGTGGTG | 0.978 ± 0.015
97 | GTGATATAAG | 0.986 ± 0.031
98 | GTGATATGGA | 0.992 ± 0.014
99 | GTGATCGTCG | 1.01 ± 0.017
100 | GTGATGCAGG | 0.98 ± 0.026
